Measured values reported in the supplement of paper PMC10201428.
± gives the standard deviation of the averaged measurements.

B1: library; a variant is named by its letters at N, in order (parent)
chain: ACATTTGTTGATACAACCATAAAATGATAATTACACCCATAAATTGATAATTATCACACCCANNNNNNNNNNNNNNCTCTGATCATAGTCAGACCAACATTGCTACGACCCGTATTCGCACCGACAC

What was measured:
[1] = variants of: B1; experiment: relative integration efficiency (T-RL orientation) vs wild-type transposon end (log2 (normalized fold change)); transposon end mutated: right end (5 bp flank + 75 bp right end); higher = more efficient transposition; settings: with VchCAST RNA-guided transposition machinery (E. coli BL21(DE3) host, lacZ target)
Experimental: (§1)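 Pooled, barcoded VchCAST (Tn6677) mini-transposon donor libraries; each variable transposon-end sequence sits in a fixed pDonor mini-transposon context (10-bp barcode and cargo not included). Left- or right-end libraries were co-transformed with pEffector (TniQ-Cascade, TnsABC, lacZ crRNA, T7, 0.1 mM IPTG) into E. coli BL21(DE3) and grown 18 h at 37 C. T-LR and T-RL junction amplicons were sequenced; output/input barcode fold change was normalised to the mean of four wild-type barcodes and log2-transformed. Two biological replicates; zero-count/undetected variants carry floor values (-10 / -15), censored here. Barcode uncoupling by PCR recombination adds noise.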

[2] = variants of: B1; experiment: relative integration efficiency (T-LR orientation) vs wild-type transposon end (log2 (normalized fold change)); transposon end mutated: right end (5 bp flank + 75 bp right end); higher = more efficient transposition; settings: with VchCAST RNA-guided transposition machinery (E. coli BL21(DE3) host, lacZ target)
Experimental: as §1

Variant	relative integration efficiency (log2) [1]	relative integration efficiency (log2) [2]
TAAATTGATATTGC A19T	-0.574 ± 0.03	-0.267 ± 0.084
TAAATTGATATTGC C61A	-0.241 ± 0.071	1.04 ± 0.15
TAAATTGATATTGC C61G	0.142 ± 0.018	0.81 ± 0.3
TAAATTGATATTGC C61T	-0.0918 ± 0.017	0.755 ± 0.17
TAAATTGATATTGC A47C	-0.409 ± 0.05	-0.216 ± 0.54
TAAATTGATACTGC	-0.0852 ± 0.044	0.177 ± 0.018
TAAATTGATATTGC T8G	-5.89 ± 0.83	-3.6 ± 0.47
TAAATTGATATTGC T8C	-0.808 ± 0.29	-2.19 ± 0.042
TAAATTGATATTGT	0.127 ± 0.093	0.155 ± 0.13
TAAATTGATATTGC	-0.0034 ± 0.1	-0.0165 ± 0.24
TAAATTGATATTGG	0.00187 ± 0.0011	-0.155 ± 0.042
ATTTAACTATAACG G26C	-2.84 ± 0.47	1.17 ± 0.16
TAAATTGATATTGC C77A	-0.111 ± 0.093	-0.0608 ± 0.27
ATTTAACTATAACG A15C	-0.749 ± 0.29	2.73 ± 0.074
AAAATTGATATTGC	-0.0332 ± 0.012	0.998 ± 0.085
TAAATTGATATTGC C55T	-0.293 ± 0.17	0.175 ± 0.29
TAAATTGATATTGC C55A	-0.759 ± 0.066	0.402 ± 0.41
ATTTAACTATAACG A50T	-1.29 ± 0.33	2.34 ± 0.11
ATTTAACTATAACG A22T	-0.696 ± 0.12	2.5 ± 0.18
ATTTAACTATAACG A22C	-1.71 ± 0.34	1.21 ± 0.057
ATTTAACTATAACG A22G	-1.42 ± 0.27	1.36 ± 0.45
TAAATTGATATTGC C59A	0.048 ± 0.078	-0.0286 ± 0.31
TAAAAACTTATTGC	-0.368 ± 0.07	2.34 ± 0.09

Variant	relative integration efficiency (log2) [1]	relative integration efficiency (log2) [2]
TAAATTGAGCGGGC	-0.15 ± 0.012	2.13 ± 0.086
GCAATTGATATTGC	-0.508 ± 0.047	2.25 ± 0.12
ATTTAACTATAACG A58C	-0.52 ± 0.37	2.86 ± 0.073
ATTTAACTATAACG A58T	-0.708 ± 0.029	2.39 ± 0.19
TAAATTGAAATTGC	-0.187 ± 0.13	1.06 ± 0.27
TCCCGTGATATTGC	-0.648 ± 0.091	2.35 ± 0.13
ATTTAACTATAACG A43C	-0.798 ± 0.095	2.4 ± 0.038
ATTTAACTATAACG A43G	-0.724 ± 0.15	2.29 ± 0.09
TAAATTGATATTGC A41T	-0.0667 ± 0.018	-0.148 ± 0.022
TAAATTGATATTGC T4G	-0.1742 ± 0.00091	0.405 ± 0.34
TAACTTGATATTGC	0.11 ± 0.027	0.325 ± 0.16
ATAATTGATATTGC	-0.135 ± 0.017	1.11 ± 0.1
TAAATTGATATTGC C79A	-0.158 ± 0.087	-0.334 ± 0.18
TAAATTGATATTGC C79T	0.00455 ± 0.031	-0.191 ± 0.27
TAAATTGATATTGC C79G	-0.0645 ± 0.0099	-0.196 ± 0.19
TAAATTGATATTGC C17A	-0.124 ± 0.042	-0.331 ± 0.098
TAAATTGATATTGC C17G	-0.0518 ± 0.013	-0.402 ± 0.0041
TAAATTGATATTGC C38G	0.03 ± 0.16	-0.489 ± 0.06
TAAATTGATATTGC C38A	-0.117 ± 0.04	-0.451 ± 0.24
TAAATTGATATTGC C38T	0.335 ± 0.044	-0.111 ± 0.49
TAAATTGATATTGC A42G	-0.807 ± 0.11	-1.01 ± 0.016
ATTTAACTATAACG C61A	-0.657 ± 0.15	2.0647 ± 0.00092
ATTTAACTATAACG C61G	-0.633 ± 0.14	2.57 ± 0.16

Variant	relative integration efficiency (log2) [1]	relative integration efficiency (log2) [2]
ATTTAACTATAACG C57A	-0.68 ± 0.085	2.48 ± 0.17
ATTTAACTATAACG T28C	-1.29 ± 0.26	2.16 ± 0.037
ATTTAACTATAACG T28G	-1.52 ± 0.28	1.89 ± 0.21
TTAATTGATATTGC	-0.072 ± 0.011	0.636 ± 0.14
ATTTAACTATAACG A24G	-0.674 ± 0.13	2.25 ± 0.086
ATTTAACTATAACG A24C	-0.878 ± 0.18	2.28 ± 0.015
ATTTAACTATAACG A24T	-0.752 ± 0.19	2.39 ± 0.024
TAAATTGATATTGC T52A	-0.149 ± 0.095	0.276 ± 0.4
TAAATTGATATTGC T52C	-0.34 ± 0.15	-0.286 ± 0.39
ATTTAACTATAACG A23C	-1.16 ± 0.088	1.98 ± 0.17
TAAATTGATATTGC T45C	-0.0459 ± 0.091	-0.285 ± 0.21
TAAATTGATATTGC T45G	-0.479 ± 0.082	-0.522 ± 0.1
TAAATTTCGCTTGC	-0.702 ± 0.069	2.429 ± 0.022
ATTTAACTATAACG T6A	-6.98 ± 0.9	-4.12 ± 0.43
ATTTAACTATAACG T6G	-6.3 ± 0.14	-5.38 ± 0.28
TAAATTGATATTGC A24C	0.238 ± 0.12	0.1 ± 0.21
ATTTAACTATAACG T45A	-1.14 ± 0.22	1.93 ± 0.065
TAAATTGATATTGG C77G	-0.0309 ± 0.041	-0.0151 ± 0.56
ATTTAACTATAACG A27T	-1.93 ± 0.43	1.735 ± 0.0049
ATTTAACTATAACG A27C	-1.49 ± 0.28	1.82 ± 0.022
ATTTAACTATAACG A27G	-1.43 ± 0.34	2.14 ± 0.29
TAAATTGATATTGC G7T	-2.2 ± 0.4	-3.44 ± 0.49
ATTTAACTATAACG T8G	-6.07 ± 0.37	-5.36 ± 1.4

Variant	relative integration efficiency (log2) [1]	relative integration efficiency (log2) [2]
TAAATTGATATTGC A16G	-0.119 ± 0.073	-0.0536 ± 0.39
TAAATTGATATTGC A16T	-0.582 ± 0.072	-0.311 ± 0.2
TACATTGATATTGC	-0.674 ± 0.11	1.79 ± 0.13
TAAATTGATATTGC A3C	-0.109 ± 0.047	-0.337 ± 0.37
TAAATTGATATTGC A3G	0.00116 ± 0.033	0.0517 ± 0.23
TAAATTGATATTGC A3T	-0.114 ± 0.0076	-0.195 ± 0.15
TAAATTGATATTGC C34T	-1.32 ± 0.14	-0.474 ± 0.43
TAAATTGATATTGC C34A	-0.0537 ± 0.0045	0.162 ± 0.16
TAAATTGATATTGC C34G	-0.73 ± 0.11	-0.479 ± 0.0065
TACCGGGATATTGC	-0.561 ± 0.028	2.282 ± 0.0082
TAAATTGATATTGC A15G	-0.381 ± 0.0063	-0.228 ± 0.029
TAAATTGTATATGC	-0.247 ± 0.1	0.948 ± 0.27
TAAATTGATATTGC G10A	0.115 ± 0.017	-0.464 ± 0.17
TAAATCGATATTGC	-0.159 ± 0.022	0.237 ± 0.063
TAAATTGATATTCG	-0.0179 ± 0.025	-0.258 ± 0.12
TAAAGTGATATTGC	0.000666 ± 0.021	0.119 ± 0.27
TAAATTGATATTGC T5G	-0.23 ± 0.018	-0.319 ± 0.36
TAAATTGATATTGC T5A	0.0941 ± 0.11	0.163 ± 0.31
TAAATTGATATTGC T5C	-0.234 ± 0.068	-0.488 ± 0.12
TAAATTGATCGGTC	-0.277 ± 0.017	1.42 ± 0.094
TAAATTGATATTGC C36A	0.40973 ± 0.00019	0.478 ± 0.0049
TAAATTGATATTGC A23T	1.42 ± 0.079	1.34 ± 0.053
TAAATTGATATTGC A23C	0.346 ± 0.047	0.198 ± 0.087

Variant	relative integration efficiency (log2) [1]	relative integration efficiency (log2) [2]
ATTTAACTATAACG A39T	-1.34 ± 0.21	1.59 ± 0.1
ATTTAACTATAACG T44C	-0.948 ± 0.24	2.28 ± 0.14
TAAAAAGATATTGC	-0.0646 ± 0.032	1.04 ± 0.075
TAAATTGATATTGC T40G	-0.896 ± 0.09	-1.24 ± 0.71
TAAATTGATATTGC A50C	-0.321 ± 0.012	-0.213 ± 0.17
GCCATTGATATTGC A62C	-0.86 ± 0.27	2.47 ± 0.15
TAAATTGATATTGC A11T	0.176 ± 0.055	-0.678 ± 0.051
TAAATTGATATTGC A11C	0.342 ± 0.021	-0.681 ± 0.56
ATTTAACTATAACG G46T	-1.25 ± 0.4	1.87 ± 0.23
ATTTAACTATAACG G46A	-1.36 ± 0.26	2.007 ± 0.0045
ATTTAACTATAACG T48C	-1.24 ± 0.25	2.03 ± 0.086
ATTTAACTATAACG C18G	-1.04 ± 0.083	1.98 ± 0.099
ATTTAACTATAACG C18A	-0.906 ± 0.082	2.01 ± 0.13
ATTTAACTATAACG C18T	-0.685 ± 0.013	2.16 ± 0.14
TAATAACATATTGC	-0.969 ± 0.16	2.203 ± 0.0027
ATTTAACTATAACG A49C	-1.46 ± 0.19	2.17 ± 0.094
TAAATGTCGATTGC	-0.671 ± 0.07	2.165 ± 0.0045
TAAATTGATATTGC T20A	-0.299 ± 0.1	-0.359 ± 0.083
TAAATTGATATTGC A35C	-0.0746 ± 0.015	-0.0637 ± 0.3
TAAATTCATATTGC	-0.149 ± 0.23	2.62 ± 0.096
TAAATTGATATTGC T80A	0.0921 ± 0.03	0.072 ± 0.48
